Measurements published in article PMC10864410, “The pathogen-encoded signalling receptor Tir exploits host-like intrinsic disorder for infection” (Communications Biology, 2024).

T1: C-terminal SH2 domain (C-SH2) of human phosphatase SHP-1, residues 101-217 (human, UniProt P29350 101-217)
T1 chain: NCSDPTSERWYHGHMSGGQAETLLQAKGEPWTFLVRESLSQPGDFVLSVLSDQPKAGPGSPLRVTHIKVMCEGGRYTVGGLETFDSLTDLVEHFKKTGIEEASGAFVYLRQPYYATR

T2: C-Tir, C-terminal cytosolic region of Tir of EPEC O127:H6, residues 388-550, unphosphorylated (Enteropathogenic E. coli (EPEC) O127:H6, UniProt B7UM99 388-550)
T2 construct: Translocated intimin receptor Tir, EPEC O127:H6, residues 388-550; Trx-His6 tag cleaved on-column with HRV-3C protease; 15N-labelled for the NMR titration; also called unphosphorylated C-Tir; Tir C-terminus; source: E. coli BL21 Star (DE3) pLysS, lysed by boiling, purified (Strep-Tactin XT, Superdex 200); not shown: Trx, N-terminal, cleaved; His6, N-terminal, cleaved; Strep-tag, C-terminal, kept
T2 sequence: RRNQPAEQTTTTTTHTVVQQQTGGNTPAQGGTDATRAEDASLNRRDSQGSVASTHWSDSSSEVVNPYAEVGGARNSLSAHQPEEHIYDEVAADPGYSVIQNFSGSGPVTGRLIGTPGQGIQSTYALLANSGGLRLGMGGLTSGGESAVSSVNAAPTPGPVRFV

T3: pC-Tir, C-Tir (residues 388-550 of EPEC O127:H6 Tir) phosphorylated by Fyn at four tyrosines (Enteropathogenic E. coli (EPEC) O127:H6, UniProt B7UM99 388-550, phosphotyrosine at Y454, Y474, Y483 and Y511)
T3 construct: Translocated intimin receptor Tir, EPEC O127:H6, residues 388-550; Same construct as m4, phosphorylated in vitro; 15N-labelled for the NMR titration; also called 4-fold phosphorylated state; phosphorylated C-Tir; not shown: Trx, N-terminal, cleaved; His6, N-terminal, cleaved; Strep-tag, C-terminal, kept
T3 sequence: T2 sequence

B1: NS-Tir, N-terminal structured region of Tir (N-Tir 61-200) of EPEC O127:H6 (domain or fragment)
chain: VDSRDIPGLPTNPSRLAAATSETCLLGGFEVLHDKGPLDILNTQIGPSAFRVEVQADGTHAAIGEKNGLEVSVTLSPQEWSSLQSIDTEGKNRFVFTGGRGGSGHPMVTVASDIAEARTKILAKLDPDNHGGRQPKDVDT
notes: Translocated intimin receptor Tir, EPEC O127:H6, residues 61-200; Trx-His6 tag cleaved in vivo by co-expressed TEV protease; source: E. coli BL21 Star (DE3) pLysS, purified (Strep-Tactin XT, Superdex 200); not shown: Trx, N-terminal, cleaved; His6, N-terminal, cleaved; Strep-tag, C-terminal, kept
B2: N-Tir, N-terminal cytosolic region of the translocated intimin receptor (Tir) of EPEC O127:H6, residues 1-233 (domain or fragment)
chain: MPIGNLGNNVNGNHLIPPAPPLPSQTDGAARGGTGHLISSTGALGSRSLFSPLRNSMADSVDSRDIPGLPTNPSRLAAATSETCLLGGFEVLHDKGPLDILNTQIGPSAFRVEVQADGTHAAIGEKNGLEVSVTLSPQEWSSLQSIDTEGKNRFVFTGGRGGSGHPMVTVASDIAEARTKILAKLDPDNHGGRQPKDVDTRSVGVGSASGIDDGVVSETHTSTTNSSVRSDPK
notes: Translocated intimin receptor Tir, EPEC O127:H6, residues 1-233, from a synthetic E. coli codon-optimised gene of the full-length protein; Trx-His6 tag cleaved in vivo by co-expressed TEV protease; also called Tir's N-terminal tail; source: E. coli BL21 Star (DE3) pLysS, purified (Strep-Tactin XT, Superdex 200); not shown: Trx, N-terminal, cleaved; His6, N-terminal, cleaved; Strep-tag, …
B3: pC-Tir, C-Tir (residues 388-550 of EPEC O127:H6 Tir) phosphorylated by Fyn at four tyrosines (domain or fragment)
chain: T2 sequence
modifications: phosphotyrosine at Y454, Y474, Y483 and Y511
B4: C-terminal SH2 domain (C-SH2) of human phosphatase SHP-1, residues 101-217 (domain or fragment, UniProt P29350 101-217, looked up)
chain: T1 chain
notes: Tyrosine-protein phosphatase SHP-1, human, C-terminal SH2 domain, residues 101-217; PCR-amplified from the vector pGEX SHP-1(NC)-SH2; Trx-His6 tag cleaved on-column with HRV-3C protease; unlabelled in the NMR titrations; also called SHP-1 C-SH2 domain; source: E. coli BL21 Star (DE3) pLysS, purified (Strep-Tactin XT, Superdex 200); not shown: Trx, N-terminal, cleaved; His6, N-terminal, cleaved

Key:
[1] = molecular target: the molecule itself; experiment: SEC-SAXS; synchrotron SEC-SAXS, B21 beamline, Shodex KW403-4F column; 100 mM Tris-HCl pH 8.0, 150 mM NaCl, 2 mM DTT, 1 mM EDTA; 50 uL of 10.0-25.0 mg/mL injected; dimeric single-peak region
[2] = molecular target: T1, C-terminal SH2 domain (C-SH2) of human …; experiment: NMR; site pY454, apparent
[3] = molecular target: T1, C-terminal SH2 domain (C-SH2) of human …; experiment: NMR; site pY474, apparent
[4] = molecular target: T1, C-terminal SH2 domain (C-SH2) of human …; experiment: NMR; site pY483, apparent
[5] = molecular target: T1, C-terminal SH2 domain (C-SH2) of human …; experiment: NMR; site pY511, apparent
[6] = molecular target: B3; experiment: NMR; site pY454 (apparent local Kd)
[7] = molecular target: B3; experiment: NMR; site pY474 (apparent local Kd)
[8] = molecular target: B3; experiment: NMR; site pY483 (apparent local Kd)
[9] = molecular target: B3; experiment: NMR; site pY511 (apparent local Kd)
[10] = molecular target: T2, C-Tir, C-terminal cytosolic region of …; experiment: NMR titration; unlabelled C-SH2 added to 15N-labelled unphosphorylated C-Tir (2.0 and 8.0 equivalents shown); [15N-1H]-HSQC peak intensities of A512-A515 fitted globally to a 1:1 model; apparent KD; conditions: both partners purified
[11] = molecular target: T3, pC-Tir, C-Tir (residues 388-550 of EPEC …); experiment: NMR titration; 15N-labelled pC-Tir (95 uM) titrated with 0.25, 0.5, 0.75, 1, 2, 4 and 6 equivalents of unlabelled C-SH2; [15N-1H]-HSQC peak intensities clustered by phosphorylation site and fitted globally to a 1:1 model; apparent KD for each site; conditions: both partners purified

B1 was tested, and the “stoichiometry N” value [1] was 2.

For B2, the “stoichiometry N” value [1] was 2.

Binder B3 has a Kd [2] of 86.1 µM, a Kd [3] of 2.66 µM and a Kd [4] of 9.25 µM. For the same binder, the Kd [5] was 6.94 µM.

B4 showed a Kd [6] of 86.1 µM, a Kd [7] of 2.66 µM and a Kd [8] of 9.25 µM. For the same binder, the Kd [9] was 6.94 µM, the Kd [10] was ~68.5 µM and the “fold enhancement of binding at the Y511 site against unphosphorylated C-Tir” value [11] was ~10 fold.
